From patent US20240059799A1 (Pfizer, published 2024)
Blank lines part the entries; values can stand above or below the binder they belong to.

Tests used:
recombinant human TL1A [1] = target: T1, recombinant human TL1A (human, UniProt O95150 71-251); assay: cell-based or functional assay
T1 chain: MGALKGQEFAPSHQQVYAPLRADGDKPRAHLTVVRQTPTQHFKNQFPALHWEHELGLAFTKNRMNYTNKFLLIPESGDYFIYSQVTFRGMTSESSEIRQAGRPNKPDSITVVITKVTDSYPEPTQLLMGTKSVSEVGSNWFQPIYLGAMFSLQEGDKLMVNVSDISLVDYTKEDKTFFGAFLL

recombinant human TL1A [2] = target: T1, recombinant human TL1A; assay: competition ELISA, coated TL1A, competitor bio-TL1A-0002
Protocol: (§1) For this competition ELISA assay procedure, 96-well high binding plates (Corning, product number 3590) were coated with 1 μg/mL recombinant TL1A in 100 μL/well in Phospate Buffered Saline (PBS) overnight at 4° C. Plates were then blocked in PBS+0.02% casein solution and washed with PBS+0.05% Tween-20 following standard ELISA protocol. […] Plates were washed with PBS+0.05% Tween-20 following standard ELISA protocol, and Streptavidin-HRP (Southern Biotech, product number 7100-05) diluted to 1:10,000 in assay buffer was added to plates and incubated for 25-30 minutes at room temperature. Next, the plates were washed with PBS+0.05% Tween-20 following standard ELISA protocol, and then TMB substrate (BioFX Laboratories, catalog number TMBW-0100-01) was added to plates. Reactions were stopped after approximately 5 minutes by adding 0.18 M ortho-phosphoric acid to each well and absorbance was read at 450 nm.

recombinant human TL1A [3] = target: T2, recombinant human TL1A (human, UniProt O95150 71-251); assay: competition ELISA vs bio-TL1A-0002
T2 construct: homotrimer; biotinylated for SPR capture; the ELISA paragraphs say only 'recombinant TL1A'; also called TNFSF15
T2 chain: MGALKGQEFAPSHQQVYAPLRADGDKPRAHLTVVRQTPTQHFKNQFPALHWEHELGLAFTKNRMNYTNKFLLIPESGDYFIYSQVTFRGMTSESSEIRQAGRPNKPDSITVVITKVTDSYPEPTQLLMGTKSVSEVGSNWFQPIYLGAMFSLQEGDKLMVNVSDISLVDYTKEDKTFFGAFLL
Protocol: as §1

B1: TL1A-0042 (antibody, human IgG1, kappa, V domains shown)
VH: QVQLVQSGAEVKKPGASVKVSCKASGYDFTYYGISWVRQAPGQGLEWMGWISTYNGNTHYARMLQGRVTMTTDTSTRTAYMELRSLRSDDTAVYYCARENYYGSGAYRGGMDVWGQGTTVTVSS
VL: DIQMTQSPSSLSASVGDRVTITCRASQSVSSYLAWYQQKPGKAPKLLIYDASNRATGVPSRFSGSGSGTDFTLTISSLQPEDFATYYCQQRSNWPWTFGQGTKVEIKR
notes: parental heavy chain with IGKV1-39*01 light chain; human IgG1 effector-function-minimized/kappa
TF-1 NF-κB reporter cell bioassay IC50 (recombinant human TL1A [1]): 25.9 nM
TF-1 NF-κB reporter cell bioassay, Bioactivity relative to TL1A-0002 (recombinant human TL1A [1]): 0.7 fold
Whole blood IFNγ assay IC50 (recombinant human TL1A [1]): 0.748 nM
Whole blood IFNγ assay, Bioactivity relative to TL1A-0002 (recombinant human TL1A [1]): 0.9 fold
Bioactivity relative to TL1A-0002 (recombinant human TL1A [2]): 0.8 fold
IC50 (recombinant human TL1A [2]): 4.2 nM

B3: TL1A-0025 (antibody, V domains shown)
VH: QVQLVQSGAEVKKPGASVKVSCKASGYDFTYYGISWVRQAPGQGLEWMGWISTYNGNDHYADSLQGRVTMTTDTSTRTAYMELRSLRSDDTAVYYCARENYYGSGAYRGGMDVWGQGTTVTVSS
VL: EIVLTQSPATLSLSPGERATLSCRASQSVSSYLAWYQQKPGQAPRLLIYDASNRATGIPARFSGSGSGTDFTLTISSLEPEDFAVYYCQQRSNWPWTFGQGTKVEIKR
Bioactivity relative to TL1A-0002 (recombinant human TL1A [3]): 1.6 fold
IC50 (recombinant human TL1A [3]): 7.2 nM

B4: TL1A-0147 (antibody, IgG1, V domains shown)
VH: QVQLVQSGAEVKKPGASVKVSCKASGYDFTYYGISWVRQAPGQGLEWMGWISTYNGNEHYAQKLQGRVTMTTDTSTRTAYMELRSLRSDDTAVYYCARENYYGSGAYRGGMDVWGQGTTVTVSS
VL: EIVLTQSPATLSLSPGERATLSCRASQSVSSYLAWYQQKPGQAPRLLIYDASNRATGIPARFSGSGSGTDFTLTISSLEPEDFAVYYCQQRSNWPWTFGQGTKVEIKR
notes: IgG1/kappa variant of TL1A-0002
Bioactivity relative to TL1A-0002 (recombinant human TL1A [3]): 1.6 fold
IC50 (recombinant human TL1A [3]): 7.2 nM

B5: TL1A-0160 (antibody, IgG1, V domains shown)
VH: QVQLVQSGAEVKKPGASVKVSCKASGYDFTYYGISWVRQAPGQGLEWMGWISTYNGNEHYAPSLQGRVTMTTDTSTRTAYMELRSLRSDDTAVYYCARENYYGSGLYRGGMDVWGQGTTVTVSS
VL: EIVLTQSPATLSLSPGERATLSCRASQSVSSYLAWYQQKPGQAPRLLIYDASNRATGIPARFSGSGSGTDFTLTISSLEPEDFAVYYCQQRSNWPWTFGQGTKVEIKR
notes: as for B4
Bioactivity relative to TL1A-0002 (recombinant human TL1A [3]): 2 fold
IC50 (recombinant human TL1A [3]): 9.1 nM

B6: TL1A-0196 (antibody, IgG1, V domains shown)
VH: QVQLVQSGAEVKKPGASVKVSCKASGYDFTYYGISWVRQAPGQGLEWMGWISTYNGNTHYARMLQGRVTMTTDTSTRTAYMELRSLRSDDTAVYYCARESYYGSGEYRGGMDVWGQGTTVTVSS
VL: EIVLTQSPATLSLSPGERATLSCRASQSVSSYLAWYQQKPGQAPRLLIYDASNRATGIPARFSGSGSGTDFTLTISSLEPEDFAVYYCQQRSNWPWTFGQGTKVEIKR
notes: as for B4
Bioactivity relative to TL1A-0002 (recombinant human TL1A [3]): 2.7 fold
IC50 (recombinant human TL1A [3]): 11.9 nM

B8: TL1A-0195 (antibody, IgG1, V domains shown)
VH: QVQLVQSGAEVKKPGASVKVSCKASGYDFTYYGISWVRQAPGQGLEWMGWISTYNGNTHYARMLQGRVTMTTDTSTRTAYMELRSLRSDDTAVYYCAREQYYGSGAHRGGMDVWGQGTTVTVSS
VL: EIVLTQSPATLSLSPGERATLSCRASQSVSSYLAWYQQKPGQAPRLLIYDASNRATGIPARFSGSGSGTDFTLTISSLEPEDFAVYYCQQRSNWPWTFGQGTKVEIKR
notes: as for B4
Bioactivity relative to TL1A-0002 (recombinant human TL1A [3]): 1.8 fold
IC50 (recombinant human TL1A [3]): 8.2 nM

Continued, values first:

TF-1 NF-κB reporter cell bioassay IC50 (recombinant human TL1A [1]): 37 nM
TF-1 NF-κB reporter cell bioassay, Bioactivity relative to TL1A-0002 (recombinant human TL1A [1]): 1.1 fold
Whole blood IFNγ assay IC50 (recombinant human TL1A [1]): 0.745 nM
Whole blood IFNγ assay, Bioactivity relative to TL1A-0002 (recombinant human TL1A [1]): 0.9 fold
Bioactivity relative to TL1A-0002 (recombinant human TL1A [2]): 1.3 fold
IC50 (recombinant human TL1A [2]): 6.6 nM
B2: TL1A-0266 (antibody, human IgG1, kappa, V domains shown)
VH: QVQLVQSGAEVKKPGASVKVSCKASGYDYTYYGISWVRQAPGQGLEWMGWISTYNTNTHYAPSLQGRVTMTTDTSTSTAYMELRSLRSDDTAVYYCARESYYGSGAFRGGMDVWGQGTTVTVSS
VL: DIQMTQSPSSLSASVGDRVTITCRASQSVSSYLAWYQQKPGKAPKLLIYDASNRATGVPSRFSGSGSGTDFTLTISSLQPEDFATYYCQQRSNWPWTFGQGTKVEIKR
notes: human IgG1 effector-function-minimized/kappa

fold reduction of TL1A binding properties compared to TL1A-0002 (recombinant human TL1A [3]): > 300 fold
B7: TL1A-0250 (antibody, IgG1, V domains shown)
VH: QVQLVQSGAEVKKPGASVKVSCKASGYDFTYYGISWVRQAPGQGLEWMGWISTYNTVTHYAPSLQGRVTMTTDTSTSTAYMELRSLRSDDTAVYYCARESYYGSGAFRGGMDVWGQGTTVTVSS
VL: DIQMTQSPSSLSASVGDRVTITCRASQSVSSYLAWYQQKPGKAPKLLIYDASNRATGVPSRFSGSGSGTDFTLTISSLQPEDFATYYCQQRSNWPWTFGQGTKVEIKR
notes: IgG1/kappa
